PMC2756588

What was measured:
Assay in all cases: SPOT array
Myo5, Q04439 = target: T1, Myo5, Q04439; settings: median of control spots 471
T1 sequence (Q04439 1072-1160, looked up): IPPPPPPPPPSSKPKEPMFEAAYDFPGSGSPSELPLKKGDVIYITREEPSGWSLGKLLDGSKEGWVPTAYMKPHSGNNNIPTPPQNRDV

Abp1, P15891 = target: T2, Abp1, P15891; settings: median of control spots 935
T2 sequence (P15891 535-592, looked up): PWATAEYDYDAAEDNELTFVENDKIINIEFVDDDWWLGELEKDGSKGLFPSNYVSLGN

Fus1, P11710 = target: T3, Fus1, P11710; settings: median of control spots 1200
T3 sequence (P11710 432-512, looked up): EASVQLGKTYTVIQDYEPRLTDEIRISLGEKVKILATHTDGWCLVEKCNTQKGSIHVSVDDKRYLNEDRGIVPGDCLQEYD

Cyk3, Q07533 = target: T4, Cyk3, Q07533; settings: median of control spots 1451
T4 sequence (Q07533 1-83, looked up): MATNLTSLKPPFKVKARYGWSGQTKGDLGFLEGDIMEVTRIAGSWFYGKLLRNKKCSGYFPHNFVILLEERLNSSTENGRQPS

Lsb3, P43603 = target: T5, Lsb3, P43603; settings: median of control spots 406
T5 sequence (P43603 385-451, looked up): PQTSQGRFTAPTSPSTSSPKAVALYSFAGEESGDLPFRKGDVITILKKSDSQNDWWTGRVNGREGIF

Lsb4, P32793 = target: T6, Lsb4, P32793; settings: median of control spots 397
T6 sequence (P32793 402-468, looked up): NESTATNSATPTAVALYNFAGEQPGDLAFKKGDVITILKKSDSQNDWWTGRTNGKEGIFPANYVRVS

Bud14, P27637 = target: T7, Bud14, P27637; settings: median of control spots 956
T7 sequence (P27637 247-328, looked up): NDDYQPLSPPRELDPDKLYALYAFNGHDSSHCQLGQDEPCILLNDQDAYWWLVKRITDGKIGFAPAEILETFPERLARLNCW

Hof1, Q05080 = target: T8, Hof1, Q05080; settings: median of control spots 4086
T8 sequence (Q05080 590-669, looked up): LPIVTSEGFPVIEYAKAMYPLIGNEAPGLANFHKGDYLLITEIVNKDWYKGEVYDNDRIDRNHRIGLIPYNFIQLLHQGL

Bbc1, P47068 = target: T9, Bbc1, P47068; settings: median of control spots 796
T9 sequence (P47068 1-78, looked up): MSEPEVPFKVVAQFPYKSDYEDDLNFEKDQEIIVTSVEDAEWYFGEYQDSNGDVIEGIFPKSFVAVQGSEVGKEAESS

Bzz1-2, P38822 = target: T10, Bzz1-2, P38822; settings: median of control spots 4538
T10 sequence (P38822 568-633, looked up): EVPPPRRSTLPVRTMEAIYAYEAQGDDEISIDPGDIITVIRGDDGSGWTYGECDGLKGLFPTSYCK

GST = settings: median of control spots 978
Myo3, P36006 = settings: median of control spots 468
Rvs167, P39743 = settings: median of control spots 2707
Chain of Rvs167, P39743 (P39743 419-482): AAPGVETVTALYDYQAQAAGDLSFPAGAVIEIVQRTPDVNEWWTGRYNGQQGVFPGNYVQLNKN

Cdc25, P04821 = target: T11, Cdc25, P04821; settings: median of control spots 969
T11 sequence (P04821 50-136, looked up): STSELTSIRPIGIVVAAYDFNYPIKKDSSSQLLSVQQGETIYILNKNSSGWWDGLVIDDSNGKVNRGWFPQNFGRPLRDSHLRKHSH

Bem1-2, P29366 = settings: median of control spots 4347
Chain of Bem1-2, P29366 (P29366 139-227): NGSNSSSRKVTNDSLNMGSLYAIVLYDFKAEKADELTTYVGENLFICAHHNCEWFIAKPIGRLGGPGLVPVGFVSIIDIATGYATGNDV

Nbp2, Q12163 = target: T12, Nbp2, Q12163; settings: median of control spots 357
T12 sequence (Q12163 103-180, looked up): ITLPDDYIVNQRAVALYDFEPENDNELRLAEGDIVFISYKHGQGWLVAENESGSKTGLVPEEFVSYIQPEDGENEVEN

Boi2, P39969 = target: T13, Boi2, P39969; settings: median of control spots 1161
T13 sequence (P39969 32-116, looked up): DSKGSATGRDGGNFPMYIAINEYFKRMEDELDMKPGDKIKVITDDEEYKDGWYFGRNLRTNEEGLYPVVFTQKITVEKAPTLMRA

Lsb1, P53281 = target: T14, Lsb1, P53281; settings: median of control spots 388
T14 sequence (P53281 45-122, looked up): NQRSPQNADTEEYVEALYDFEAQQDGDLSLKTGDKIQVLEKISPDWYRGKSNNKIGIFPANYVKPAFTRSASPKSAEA

Pin3, Q06449 = target: T15, Pin3, Q06449; settings: median of control spots 2171
T15 sequence (Q06449 53-122, looked up): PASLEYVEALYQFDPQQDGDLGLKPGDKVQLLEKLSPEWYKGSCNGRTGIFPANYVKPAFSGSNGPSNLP

Boi1, P38041 = target: T16, Boi1, P38041; settings: median of control spots 1162
T16 sequence (P38041 1-86, looked up): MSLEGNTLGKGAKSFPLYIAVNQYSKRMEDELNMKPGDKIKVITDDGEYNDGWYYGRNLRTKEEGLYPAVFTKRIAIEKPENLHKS

Pex13, P80667 = target: T17, Pex13, P80667; settings: median of control spots 1341
T17 sequence (P80667 295-386, looked up): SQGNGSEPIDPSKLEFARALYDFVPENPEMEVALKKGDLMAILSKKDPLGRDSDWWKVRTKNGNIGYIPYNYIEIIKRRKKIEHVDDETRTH

Bem1-1, P29366 = settings: median of control spots 4282
Chain of Bem1-1, P29366 (P29366 55-141): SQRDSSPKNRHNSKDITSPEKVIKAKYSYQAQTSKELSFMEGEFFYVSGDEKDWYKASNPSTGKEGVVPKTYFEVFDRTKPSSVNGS

Sla1-3, P32790 = target: T18, Sla1-3, P32790; settings: median of control spots 5475
T18 sequence (P32790 344-424, looked up): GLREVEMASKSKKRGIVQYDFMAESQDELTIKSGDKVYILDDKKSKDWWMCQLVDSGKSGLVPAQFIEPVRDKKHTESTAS

Bzz1-1, P38822 = target: T19, Bzz1-1, P38822; settings: median of control spots 4446
T19 sequence (P38822 478-572, looked up): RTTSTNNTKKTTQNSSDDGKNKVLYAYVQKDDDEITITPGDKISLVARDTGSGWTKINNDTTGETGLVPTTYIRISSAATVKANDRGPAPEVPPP

Sla1-2, P32790 = target: T20, Sla1-2, P32790; settings: median of control spots 712
T20 sequence (P32790 60-140, looked up): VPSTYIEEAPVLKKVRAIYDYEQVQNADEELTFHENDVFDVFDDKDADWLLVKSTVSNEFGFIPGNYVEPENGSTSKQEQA

Hse1, P38753 = target: T21, Hse1, P38753; settings: median of control spots 1727
T21 sequence (P38753 208-285, looked up): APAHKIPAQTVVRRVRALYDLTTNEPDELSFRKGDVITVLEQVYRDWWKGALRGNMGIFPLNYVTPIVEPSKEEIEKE

Sho1, P40073 = settings: median of control spots 1148
Chain of Sho1, P40073 (P40073 287-367): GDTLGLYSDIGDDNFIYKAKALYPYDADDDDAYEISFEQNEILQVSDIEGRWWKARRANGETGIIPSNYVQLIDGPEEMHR

Binder	SPOT intensity (Myo5, Q04439)	SPOT intensity (Abp1, P15891)	SPOT intensity (Fus1, P11710)	SPOT intensity (Cyk3, Q07533)	SPOT intensity (Lsb3, P43603)	SPOT intensity (Lsb4, P32793)	SPOT intensity (Bud14, P27637)	SPOT intensity (Hof1, Q05080)	SPOT intensity (Bbc1, P47068)	SPOT intensity (Bzz1-2, P38822)	SPOT intensity (GST)	SPOT intensity (Myo3, P36006)	SPOT intensity (Rvs167, P39743)	SPOT intensity (Cdc25, P04821)	SPOT intensity (Bem1-2, P29366)	SPOT intensity (Nbp2, Q12163)	SPOT intensity (Boi2, P39969)	SPOT intensity (Lsb1, P53281)	SPOT intensity (Pin3, Q06449)	SPOT intensity (Boi1, P38041)	further results
QHQQRQPKRPKRYSL	2	106	55	1	36	101	8	3	211	17	8	2	0	22	147	21	4	5	2	13	SPOT intensity (Pex13, P80667): 6; SPOT intensity (Bem1-1, P29366): 1; SPOT intensity (Sla1-3, P32790): 78; SPOT intensity (Bzz1-1, P38822): 0; SPOT intensity (Sla1-2, P32790): 5; SPOT intensity (Hse1, P38753): 33; SPOT intensity (Sho1, P40073): 115
RRRRRPHRIERPLSN	1	133	43	5	8	6	24	4	515	5	1	7	4	28	5	74	0	0	1	9	SPOT intensity (Pex13, P80667): 2; SPOT intensity (Bem1-1, P29366): 1; SPOT intensity (Sla1-3, P32790): 25; SPOT intensity (Bzz1-1, P38822): 2; SPOT intensity (Sla1-2, P32790): 0; SPOT intensity (Hse1, P38753): 16; SPOT intensity (Sho1, P40073): 270
ALRRRLPVTRSKINW	0	134	25	2	4	7	6	14	245	7	2	10	8	46	7	149	1	46	10	13	SPOT intensity (Pex13, P80667): 4; SPOT intensity (Bem1-1, P29366): 0; SPOT intensity (Sla1-3, P32790): 73; SPOT intensity (Bzz1-1, P38822): 0; SPOT intensity (Sla1-2, P32790): 0; SPOT intensity (Hse1, P38753): 35; SPOT intensity (Sho1, P40073): 196
RSLRKRPTSPSISGS	2	224	44	1	14	5	22	13	175	21	3	9	2	52	5	198	0	26	8	5	SPOT intensity (Pex13, P80667): 5; SPOT intensity (Bem1-1, P29366): 0; SPOT intensity (Sla1-3, P32790): 44; SPOT intensity (Bzz1-1, P38822): 0; SPOT intensity (Sla1-2, P32790): 1; SPOT intensity (Hse1, P38753): 55; SPOT intensity (Sho1, P40073): 295
